Experimental data: article PMC3591176

Target: Bbil-TX, basic PLA2 from Bothriopsis bilineata snake venom (Bothriopsis bilineata)

**Q.** With “crotapotin isoform F3 from Crotalus durissus cascavella rattlesnake venom (natural protein)” as the substance, how does the inhibition of the PLA2 activity of Bbil-TX (substrate 4-nitro-3-octanoyloxy-benzoic acid) after preincubation of enzyme and inhibitor for 30 min at 37°C read?
**A.** 50%
